One experiment has as its system NFκB pathway, CyclinD1. Put plainly: NFκB pathway activation and CyclinD1 expression in mammary epithelial cells after MPA. It counts as in vivo, mouse. To be noted: three day MPA treatment. The source says:
a, Activation of the NFκB pathway and CyclinD1 expression by MPA. Nulliparous RANK^Δmam and littermate control females were s.c. implanted with slow-release MPA pellets or treated with sham surgery. a, In situ immunostaining to detect phosphorylated (P) IκBα in mammary epithelial cells of RANK^Δmam and littermate control females after 3d MPA treatment. b, Western blot analysis of CyclinD1 and RANKL in isolated mammary epithelial cells from RANK^Δmam and littermate control females after 3d MPA treatment. Recombinant, murine sRANKL protein is shown for molecular size comparison. β-actin is shown as a loading control.
RANKL-RANK signaling via IKKα-NFκB-CyclinD1 in mammary epithelial cells is illustrated in FIG. 11a. […] To directly show whether RANK mediates NFκB-CyclinD1 activation downstream of progestins in vivo, mice were challenged with MPA. […] The Id2 pathway is a second genetically confirmed down-stream pathway for RANKL/RANK in mammary epithelial cells^17. To extend these findings to human, human SKBR3 breast tumor cells were assayed. […] To further test the effects of RANKL stimulation the ability of these cells to grow in an anchorage-independent manner was assessed, which correlates well with tumorigenicity in vivo^18.

For experiment [1], the system named is primary mouse mammary epithelial cells. Put plainly: DNA damage responses (cell cycle arrest, apoptosis) in primary mouse mammary epithelial cells. The class given is cell-based. The conditions noted are these: RANKL 1 μg/ml. The protocol: (§1) a, Western Blot analysis for γH2AX, phosphorylated (P) Chk1, total Chk1, p53 and β-actin in isolated primary mouse mammary gland epithelial cells in response to γ-irradiation (2 Gray) in the presence (1 μg/ml) or absence of RANKL stimulation. b,c, FACS analysis of propidium iodide (PI) stained b, mammary epithelial cells and c, SKBR3 human breast cancer cells after γ-irradiation (2 Gray) in the absence or presence (1 μg/ml) of RANKL. Data are representative of at least 3 experiments. Apoptotic cells with a DNA content <2n appear in the sub-G1 region. Percent of cells in sub-G1 (M1), G1-phase (M2), S/G2/M-phase (M3) as well as polyploid cells with a DNA content >4n are given for the indicated time points.
(§2) a,b, FACS analysis of a, mammary epithelial cells and b, SKBR3 human breast cancer cells incubated with the genotoxic agent doxorubicin (Dox, 1 μM) in the presence (1 μg/ml) or absence of RANKL. Data are representative of at least 3 experiments. Percent of cells in sub-G1 (M1), G1-phase (M2), S/G2/M-phase (M3) as well as polyploid cells with a DNA content >4n are given for 24 and 36 hours after doxorubicin treatment. c, mRNA expression of pro-apoptotic genes Bim, Puma, and Noxa 6 hours after γ-irradiation (2 Gray) in the presence (1 μg/ml) or absence of RANKL stimulation. Data are shown as fold change compared to control (+/−sem). n=3). *P<0.05; **P<0.005 (Student's t-test).
(§3) For measurement of cell cycle arrest and apoptosis primary mouse mammary epithelial cells and SKBR3 human breast cancer cells were seeded at a cell-density of 100000 cells/well in a 6-well plate and allowed to grow for 24 hours. Cells where then treated with doxorubicin (1 μM) or γ-irradiation (2 Gray) in the absence or presence of recombinant RANKL (1 μg/ml). Cell cycle arrest and numbers of dead cells were determined using propidium iodine staining. To determine in vivo mammary gland epithelial cell death, control and RANK^Δmam littermate females were γ-irradiated with a total dose of 5 Gray (Gy). Six hours later, mammary glands were isolated and immunostained for active Caspase 3 (Cell Signaling) indicative of apoptosis.

In experiment [2] the test system is SKBR3 human breast cancer cells. The experiment in a line: DNA damage responses (cell cycle arrest, apoptosis) in SKBR3 cells. The conditions noted are these: RANKL 1 μg/ml. The class given is cell-based. The protocol: as §1, §2, §3
For experiment [3], the system named is SKBR3 breast cancer cells. Put plainly: Growth curve of SKBR3 breast cancer cells. The class given is cell-based, human. To be noted: RANKL (1 μg/ml), 3 days. As for the experimental part:
a, Western blotting for phosphorylated (P) p65 NFκB, total p65 NFκB, phosphorylated (P) IκBα, total IκBα, phosphorylated (P) ERK1/2, total ERK1/2, phosphorylated (P) p38-MAPK, and p38-MAPK in human SKBR3 breast cancer cells in response to RANKL stimulation (1 μg/ml). Data are representative of 3 experiments. b, Growth curve of SKBR3 breast cancer cells cultured in normal growth medium (control, DMEM supplemented with 10% FCS) or in the presence of RANKL (1 μg/ml). Cell numbers were determined by counting live cells (trypan blue-exclusion) over 3 days. c, Onset of palpable mammary tumors in NFATc1^Δmam (n=10) and age matched littermate control (n=16) females treated with MPA pellets and DMBA. Data are shown as percentage of tumor free mice after the last DMBA challenge. No significant difference was found. d, Quantification of NFATc1 mRNA expression in purified mammary epithelial cells (MECs) and MPA-driven mammary tumors from NFATc1^Δmam and littermate control females. mRNA was determined by qRT-PCR. Data are shown as fold change compared to control (+/−sem). n=5 Per group. *P<0.05 (Student's t-test).

As to `CC(=O)O[C@]1(C(C)=O)CC[C@H]2[C@@H]3C[C@H](C)C4=CC(=O)CC[C@]4(C)[C@H]3CC[C@@]21C` [MPA, medroxyprogesterone acetate], the “nuclear phosphorylated IκBα and CyclinD1 protein expression” value in the experiment with NFκB pathway, CyclinD1 (RANK^Δmam female) is on record as “severely reduced”. In the experiment with NFκB pathway, CyclinD1 (control females), the “CyclinD1 protein expression in mammary epithelial cells” value is “induction of CyclinD1 protein expression” and the “nuclear phosphorylated IκBα in mammary epithelial cells” value was “nuclear accumulation of phosphorylated IκBα”.

B1: RANKL: Receptor Activator of NF-κB Ligand; recombinant murine RANKL used for stimulation (protein, UniProt O35235 139-316, looked up)
Tumor necrosis factor ligand …: FSGAPAMMEGSWLDVAQRGKPEAQPFAHLTINAASIPSGSHKVTLSSWYHDRGWAKISNMTLSNGKLRVNQDGFYYLYANICFRHHETSGSVPTDYLQLMVYVVKTSIKIPSSHNLMKGGSTKNWSGNSEFHFYSINVGGFFKLRAGEEISIQVSNPSLLDPDQDATYFGAFKVQDID
Take B1: the “γ-irradiation-induced upregulation of Bim, Puma, and Noxa mRNA” value in experiment [1] (6 hours after γ-irradiation (2 Gray)) is reported as “did not occur”. Moreover, the “cell death after DNA damage” value in experiment [1] (doxorubicin (1 μM)), in experiment [1] (γ-irradiation (2 Gray)), in experiment [2] (doxorubicin (1 μM)) and in experiment [2] (γ-irradiation (2 Gray)) was “marked protection from cell death” in each case. Besides, the “early cell cycle arrest after DNA damage” value in experiment [1] (doxorubicin (1 μM)), in experiment [1] (γ-irradiation (2 Gray)), in experiment [2] (doxorubicin (1 μM)) and in experiment [2] (γ-irradiation (2 Gray)) was “did not alter” throughout. For the same molecule, in experiment [1] (γ-irradiation (2 Gray)), the “induction of γH2AX and p53 or activation of Chk1” value is “did not alter”. The “proliferation of SKBR3 cells” value in experiment [3] was “induced”.

The record behind these values is patent publication US20130316374A1, “BREAST CANCER DIAGNOSTICS” (IMBA - INSTITUT FUR MOLEKULARE BIOTECHNOLOGIE GMBH, priority 2010, published 2013).
